Values of other authors as cited in article PMC8608346.

Biological target: FPR1 (Homo sapiens) (UniProt P21462)
Sequence of UniProt P21462 (P21462 whole entry): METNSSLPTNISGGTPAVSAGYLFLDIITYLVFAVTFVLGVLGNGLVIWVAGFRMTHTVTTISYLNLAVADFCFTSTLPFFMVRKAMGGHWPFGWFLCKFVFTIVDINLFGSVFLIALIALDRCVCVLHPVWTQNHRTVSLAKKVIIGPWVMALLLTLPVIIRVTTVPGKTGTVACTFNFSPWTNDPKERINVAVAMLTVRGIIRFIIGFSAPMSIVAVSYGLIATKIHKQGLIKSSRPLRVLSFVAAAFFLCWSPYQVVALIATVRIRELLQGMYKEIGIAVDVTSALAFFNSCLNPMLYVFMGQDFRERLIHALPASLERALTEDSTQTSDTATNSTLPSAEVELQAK

Kd: 0.447 nM
Substance: FAM19A4 (from UniProt Q96LR4)
